Test results published in patent US20030166864A1 (Human Genome Sciences, published 2003).

Biological target: T1, TACI-Fc fusion protein (transmembrane activator and CAML-interactor fused to Fc) (Homo sapiens (Human), UniProt O14836 1-159)
T1 construct: also called TACI-FC protein; Full-length TACI-Fc; not shown: Fc part from the vector pC4-Fc
T1 sequence: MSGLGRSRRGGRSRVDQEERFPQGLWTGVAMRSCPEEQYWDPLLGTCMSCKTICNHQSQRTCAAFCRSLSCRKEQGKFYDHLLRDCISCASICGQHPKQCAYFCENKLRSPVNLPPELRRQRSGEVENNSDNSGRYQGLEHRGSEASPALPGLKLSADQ
Assay: BIAcore (SPR), TACI-Fc amine-coupled to a CM5 chip, TNF-epsilon in flow
Description: BIAcore analysis was performed essentially as follows. TACI-FC protein was immobilized to the BIAcore sensor chip (CM5 chip) via amine groups using N-ethyl-N′-(dimethlaminopropyl)carbodiimide/N-hydroxysuccinimide chemistry. Various dilutions of TNF-epsilon or other TNF ligands were flowed over the receptor-derivatized flow cells at a rate of 15 microliters per minute for a total volume of 50 microliters. The amount of bound protein was determined during washing of the flow cell with HBS buffer (10 mM HEPES, pH 7.4, 150 mM NaCl, 3.4 mM EDTA, 0.005% Surfactant P20). Binding specificity of TNF-epsilon to TACI was determined by competition with soluble competitor. The flow cell surface was regenerated by displacing bound protein by washing with 20 microliters of 10 mM glycine-HCl, pH=2.3.

B1: TNF-epsilon (purified, trimeric form isolated by size exclusion chromatography) (ligand)
chain: AVLTQKQKNDSDVTEVMWQPALRRGRGLQAQGYGVRIQDAGVYLLYSQVLFQDVTFTMGQVVSREGQGRQETLFRCIRSMPSHPDRAYNSCYSAGVFHLHQGDILSVIIPRARAKLNLSPHGTFLGFVKL
- Kd: 6 nM
